The supplement of paper PMC10126150
± gives the standard deviation of the averaged measurements.

test system: ATP; test: switch fluorescence ratio, 500 uM ATP over buffer (Cy3 cluster intensity, sum of 5 cycles each) (fold (ratio)); higher = stronger signal-on switching upon ATP binding; sequences stand for … in TCGTCGGCAGCGTCAGATGTGTATAAGAGACAGTTTTTTTTTTTTTTTTTTTTTTTTT…TC; details: aptamer strand: ATP DNA aptamer (quencher-CACCTGGGGGAGTATTGCGGAGGAAGG + anchor), 100 nM annealed; ATP concentration: 500 uM
Procedure, shortened: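 The quencher-labelled ATP aptamer, at 100 nM, was annealed to Cy3-labelled switching-strand clusters on a modified Illumina MiSeq flow-cell. The clusters were imaged in selection buffer, then after 15 min with 500 uM ATP at 22 °C, and this buffer/ATP cycle ran five times with NaOH stripping and re-annealing between runs. Per-cluster fluorescence ratios, summed target-cycle over summed buffer-cycle Cy3 intensity, were averaged per switch-domain sequence. Clusters outside 100-1000 RFU were excluded.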
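Further: ATP exposure 15 min at 22 °C before imaging.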

AGTTAATAAT and AGTTAATTTC are within error of each other in switch fluorescence ratio: 1.01 ± 0.032 for the first, 0.989 ± 0.03 for the second.

AGTTAATTTT and AGTTACAGTC are within error of each other in switch fluorescence ratio: 1.0014 ± 0.0007 for the first, 1.05 ± 0.073 for the second.

AGTTAGAAAT and AGTTAGGACA are within error of each other in switch fluorescence ratio: 1.02 ± 0.03 for the first, 1 ± 0.031 for the second.

AGTTAGGCCT and AGTTAGGTTA are within error of each other in switch fluorescence ratio: 1.02 ± 0.039 for the first, 1 ± 0.014 for the second.

AGTTAGTTCG and AGTTATACGG are within error of each other in switch fluorescence ratio: 0.969 ± 0.043 for the first, 0.995 ± 0.032 for the second.

AGTTATACGT and AGTTATCCGG are within error of each other in switch fluorescence ratio: 1.03 ± 0.048 for the first, 0.97 ± 0.044 for the second.

AGTTATGCAC and AGTTATGTTA are within error of each other in switch fluorescence ratio: 1.024 ± 0.0083 for the first, 1 ± 0.022 for the second.

AGTTCAATT and AGTTCACTGG are within error of each other in switch fluorescence ratio: 0.9971 ± 0.0032 for the first, 0.979 ± 0.02 for the second.

AGTTCATTT and AGTTCGTCGT are within error of each other in switch fluorescence ratio: 0.999 ± 0.019 for the first, 0.983 ± 0.015 for the second.

AGTTCGTGGG and AGTTCTACAT are within error of each other in switch fluorescence ratio: 0.973 ± 0.013 for the first, 1.01 ± 0.039 for the second.

AGTTCTAGGT and AGTTCTATTT are within error of each other in switch fluorescence ratio: 0.986 ± 0.018 for the first, 1.01 ± 0.021 for the second.

Going from AGTTGAAGTT to AGTTGAATGT, the switch fluorescence ratio falls from 1.02 ± 0.039 to 0.9647 ± 0.0063.

AGTTGAGCTT and AGTTGAGGGC are within error of each other in switch fluorescence ratio: 0.987 ± 0.013 for the first, 0.98 ± 0.047 for the second.

Compared with AGTTGCGATG, AGTTGCGGTC is lower in switch fluorescence ratio: 0.985 ± 0.014 for the first, 0.9516 ± 0.0041 for the second.

AGTTGCGTCC and AGTTGCTTTT are within error of each other in switch fluorescence ratio: 1.01 ± 0.026 for the first, 0.993 ± 0.036 for the second.

Compared with AGTTGGATGT, AGTTGGGAAC is higher in switch fluorescence ratio: 0.977 ± 0.012 for the first, 1.01 ± 0.015 for the second.

First: AGTTGGGCGG
Second: AGTTGGGGAG
The switch fluorescence ratio of the first is higher: 1.02 ± 0.021 for the first, 0.9933 ± 0.0023 for the second.

AGTTGGGGGG and AGTTGGGTGC are within error of each other in switch fluorescence ratio: 0.986 ± 0.01 for the first, 0.99 ± 0.018 for the second.

Going from AGTTGGTAGC to AGTTGTATGT, the switch fluorescence ratio falls from 1.01 ± 0.011 to 0.951 ± 0.037.

AGTTGTGAGG and AGTTGTGCAG are within error of each other in switch fluorescence ratio: 1.01 ± 0.026 for the first, 1.02 ± 0.062 for the second.

AGTTGTGCCT and AGTTGTGGGG are within error of each other in switch fluorescence ratio: 1.015 ± 0.0036 for the first, 0.995 ± 0.032 for the second.

AGTTGTTGGG and AGTTGTTTAG are within error of each other in switch fluorescence ratio: 0.998 ± 0.013 for the first, 1.01 ± 0.012 for the second.

AGTTTAATGT and AGTTTACATT are within error of each other in switch fluorescence ratio: 1 ± 0.027 for the first, 1.02 ± 0.026 for the second.

AGTTTATACT and AGTTTATTAT are within error of each other in switch fluorescence ratio: 1.03 ± 0.0032 for the first, 1.02 ± 0.015 for the second.

AGTTTCAGGT and AGTTTCTGAG are the same in switch fluorescence ratio: 1.005 ± 0.006 for the first, 1.01 ± 0.056 for the second.

AGTTTCTTTT and AGTTTGAGGT are within error of each other in switch fluorescence ratio: 0.994 ± 0.0026 for the first, 0.995 ± 0.023 for the second.

AGTTTGATAG and AGTTTGATGA are within error of each other in switch fluorescence ratio: 0.998 ± 0.017 for the first, 0.989 ± 0.028 for the second.

AGTTTGGCGG and AGTTTGGCGT are within error of each other in switch fluorescence ratio: 0.923 ± 0.084 for the first, 1.01 ± 0.041 for the second.

AGTTTGGGAG and AGTTTGGGGT are within error of each other in switch fluorescence ratio: 0.992 ± 0.021 for the first, 1.01 ± 0.029 for the second.

AGTTTGGTCC and AGTTTGGTCT are within error of each other in switch fluorescence ratio: 0.997 ± 0.035 for the first, 0.984 ± 0.034 for the second.

AGTTTGGTTG and AGTTTGTAGT are within error of each other in switch fluorescence ratio: 0.991 ± 0.053 for the first, 1 ± 0.011 for the second.

AGTTTGTTGG and AGTTTGTTGT are within error of each other in switch fluorescence ratio: 0.989 ± 0.035 for the first, 1.06 ± 0.095 for the second.

AGTTTGTTTG and AGTTTTAAGC are the same in switch fluorescence ratio: 1.006 ± 0.009 for the first, 1.01 ± 0.043 for the second.

AGTTTTAGTC and AGTTTTCCCT are the same in switch fluorescence ratio: 1.01 ± 0.017 for the first, 1.01 ± 0.015 for the second.

AGTTTTGAGA and AGTTTTGATG are within error of each other in switch fluorescence ratio: 0.983 ± 0.022 for the first, 0.9784 ± 0.0044 for the second.

AGTTTTTGAT and AGTTTTTGGT are within error of each other in switch fluorescence ratio: 0.9692 ± 0.0068 for the first, 0.97 ± 0.028 for the second.

Compared with AGTTTTTTGC, AGTTTTTTGT is higher in switch fluorescence ratio: 0.908 ± 0.025 for the first, 0.979 ± 0.042 for the second.

ATAAAACAAG and ATAAAAGAAT are within error of each other in switch fluorescence ratio: 0.99 ± 0.027 for the first, 0.998 ± 0.0085 for the second.

Going from ATAAAATATT to ATAAACCTAA, the switch fluorescence ratio rises from 0.998 ± 0.022 to 1.05 ± 0.024.

Going from ATAAAGATAG to ATAAAGGGCG, the switch fluorescence ratio rises from 1.0006 ± 7.5e-05 to 1.029 ± 0.01.

ATAAAGTGTG and ATAAAGTTGA are within error of each other in switch fluorescence ratio: 1.01 ± 0.02 for the first, 1 ± 0.034 for the second.

ATAAATAAAA and ATAAATTGCG are within error of each other in switch fluorescence ratio: 0.984 ± 0.036 for the first, 0.9931 ± 0.0086 for the second.

First: ATAACAAGGG
Second: ATAACACAGG
The switch fluorescence ratio of the first is lower: 1.04 ± 0.089 for the first, 1.279 ± 0.0016 for the second.

First: ATAACCCCGA
Second: ATAACCGCGG
The switch fluorescence ratio of the first is higher: 1.088 ± 0.0075 for the first, 0.994 ± 0.025 for the second.

ATAACGAATG and ATAACGCGGT are within error of each other in switch fluorescence ratio: 1.01 ± 0.024 for the first, 0.9967 ± 0.0047 for the second.

ATAACTGCGG and ATAAGAAGAT are the same in switch fluorescence ratio: 1.02 ± 0.012 for the first, 1.022 ± 0.0014 for the second.

Going from ATAAGCACTT to ATAAGCGCGT, the switch fluorescence ratio falls from 1.22 ± 0.027 to 0.999 ± 0.017.

ATAAGGCTAA and ATAAGGCTTG are within error of each other in switch fluorescence ratio: 0.982 ± 0.016 for the first, 0.968 ± 0.03 for the second.

ATAAGGGAGT and ATAAGGGCGA are within error of each other in switch fluorescence ratio: 0.9909 ± 0.0033 for the first, 0.985 ± 0.028 for the second.

Compared with ATAAGGGCGT, ATAAGGTCTA is lower in switch fluorescence ratio: 1.001 ± 0.0065 for the first, 0.971 ± 0.015 for the second.
